Results from article PMC9312489, “Tertiary and Quaternary Structure Organization in GMP Synthetases: Implications for Catalysis” (Biomolecules, 2022).

Target: the molecule itself
Assay: SAXS; samples in solution at ~12 mg/mL, beamline BM29 (ESRF), ATSAS analysis, ab initio shapes

Protein | stoichiometry N
Native Plasmodium falciparum GMP synthetase (PfGMPSwt) (enzyme, UniProt Q8IJR9 1-555, looked up, GMP synthetase of Plasmodium falciparum, native gene PF10_0123 (PlasmoDB); also called native enzyme; wild-type enzyme; source: E. coli (pQE30PfGMPS construct), purified (HisTrap HP, Superdex 200 SEC)) MEGEEYDKILVLNFGSQYFHLIVKRLNNIKIFSETKDYGVELKDIKDMNIKGVILSGGPYSVTEAGSPHLKKEVFEYFLEKKIPIFGICYGMQEIAVQMNGEVKKSKTSEYGCTDVNILRNDNINNITYCRNFGDSSSAMDLYSNYKLMNETCCLFENIKSDITTVWMNHNDEVTKIPENFYLVSSSENCLICSIYNKEYNIYGVQYHPEVYESLDGELMFYNFAYNICKCKKQFDPIRYHELELKNIEKYKHDHYVIAAMSGGIDSTVAAAYTHKIFKERFFGIFIDNGLLRKNEAENVYTFLKSTFPDMNITKIDASENFLSNLQGVTDPEQKRKIIGKLFIEEFEKAVNNIDIDINKTFLLQGTLYPDIIESKCSKNLSDTIKTHHNVGGLPKNLKFKLFEPFKYLFKDDVKTLSRELNLPEEITNRHPFPGPGLAIRVIGEINKHKLNILREVDDIFINDLKQYGLYNQISQAFAVLLSSKSVGVRGDARSYDYVCVLRAVKTSSFMTANWYQIPYDILDKITTRILSEVKGVNRILYDVSSKPPATIEFE | 2
PfGMPS_C89A (enzyme, GMP synthetase of Plasmodium falciparum (PF10_0123) with the catalytic Cys89 of the GATase domain mutated to alanine; made with pETPfGMPS as template; this is a point mutant made on the plasmid pETPfGMPS; also called C89A single mutant; single mutant enzyme; source: E. coli BL21-CodonPlus(DE3)-RIL (pETPfGMPS mutant construct), purified (HisTrap HP, Superdex 200 SEC)) MEGEEYDKILVLNFGSQYFHLIVKRLNNIKIFSETKDYGVELKDIKDMNIKGVILSGGPYSVTEAGSPHLKKEVFEYFLEKKIPIFGIAYGMQEIAVQMNGEVKKSKTSEYGCTDVNILRNDNINNITYCRNFGDSSSAMDLYSNYKLMNETCCLFENIKSDITTVWMNHNDEVTKIPENFYLVSSSENCLICSIYNKEYNIYGVQYHPEVYESLDGELMFYNFAYNICKCKKQFDPIRYHELELKNIEKYKHDHYVIAAMSGGIDSTVAAAYTHKIFKERFFGIFIDNGLLRKNEAENVYTFLKSTFPDMNITKIDASENFLSNLQGVTDPEQKRKIIGKLFIEEFEKAVNNIDIDINKTFLLQGTLYPDIIESKCSKNLSDTIKTHHNVGGLPKNLKFKLFEPFKYLFKDDVKTLSRELNLPEEITNRHPFPGPGLAIRVIGEINKHKLNILREVDDIFINDLKQYGLYNQISQAFAVLLSSKSVGVRGDARSYDYVCVLRAVKTSSFMTANWYQIPYDILDKITTRILSEVKGVNRILYDVSSKPPATIEFE | 2
